Non-standard residues stand in square brackets, D forms with d. No end group written: not given here. Pmb = 4-(di-t-butylphosphonomethyl)-3-methylbutyric acid, phosphonate replacement of phospho-Thr; pT = C[C@@H](OP(=O)(O)O)[C@H](N)C(=O)O; pS = N[C@@H](COP(=O)(O)O)C(=O)O
Columns and labels:
[1] = molecular target: T1, 14-3-3ε (endogenous, in human SCC12B.2 squamous cell carcinoma cells) (human, UniProt P62258 1-255); assay: cell-based or functional assay
T1 sequence (looked up): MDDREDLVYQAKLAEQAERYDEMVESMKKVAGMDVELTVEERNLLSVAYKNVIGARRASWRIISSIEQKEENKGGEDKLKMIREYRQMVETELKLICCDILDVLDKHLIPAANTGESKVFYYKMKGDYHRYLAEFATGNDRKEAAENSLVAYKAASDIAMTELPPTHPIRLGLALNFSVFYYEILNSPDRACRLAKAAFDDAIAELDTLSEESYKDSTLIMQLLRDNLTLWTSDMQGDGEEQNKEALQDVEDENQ

[2] = molecular target: T2, 14-3-3ε protein (purified, as used in DSF and in the SPR of the Pmb peptide) (UniProt P62258 1-255); assay: differential scanning fluorimetry (DSF), 14-3-3ε alone against 14-3-3ε with peptide
T2 sequence (looked up): T1 sequence (looked up)

[3] = molecular target: T2, 14-3-3ε protein (purified, as used in …); assay: SPR
[4] = molecular target: T2, 14-3-3ε protein (purified, as used in …); assay: differential scanning fluorimetry (DSF), SYPRO-Orange, 2 µM protein and 30 µM peptide
Method: The binding of the modified pT peptide to 14-3-3ε was assessed using differential scanning fluorimetry (DSF) and surface plasmon resonance (SPR) measurements. The melting temperature (Tm) of 14-3-3ε-peptide complexes was determined by DSF using the BioRad CFX384 Touch realtime PCR. The protein unfolding was detected with a fluorescent SYPRO-orange dye. The assay was performed in 20 mM Tris, 150 mM NaCl, and 1 mM DTT PH7.4 buffer in a […] with a total volume of 20 μL, containing 2 and 30 μM, final concentrations of protein and peptide, respectively, and 500× dilution of the SYPRO-Orange dye stock. The excitation filter for the dye was 450-490 nm, and the emission filter was 560-580 nm. The temperature was held at 25° C. for 5 min and then increased from 25 to 95° C. at a rate of 0.3° C./ min, and fluorescence was recorded over time. Tm values were determined by plotting the first derivative of the melting curve.

14-3-3ε-(His)12 protein = molecular target: T3, 14-3-3ε-(His)12 protein (UniProt P62258 1-255); assay: SPR, Biacore 8K, 14-3-3ε-(His)12 on NTA chip, peptide 1 nM-2000 nM, 25° C., mean±SD
T3 sequence: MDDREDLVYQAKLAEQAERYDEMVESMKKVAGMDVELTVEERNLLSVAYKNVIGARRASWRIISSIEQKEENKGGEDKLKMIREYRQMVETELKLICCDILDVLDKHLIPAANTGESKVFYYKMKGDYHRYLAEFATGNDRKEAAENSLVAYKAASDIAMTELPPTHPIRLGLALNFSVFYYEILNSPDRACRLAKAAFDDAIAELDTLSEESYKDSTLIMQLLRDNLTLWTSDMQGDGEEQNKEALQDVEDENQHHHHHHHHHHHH
Method: For the SPR measurements, binding affinities of the modified pT peptide for 14-3-3ε were measured by SPR using a Biacore 8K Surface plasmon resonance instrument. 100 nM 14-3-3ε-(His)12 protein in 20 mM Tris, 150 mM NaCl, 50 μM EDTA, 0.005% Tween 20, pH 7.4 buffer was immobilized to a NiCl2 activated NTA chip at a flow rate of 5 μL/min for 10 min and then washed with the running buffer for 20 min. Then peptide solutions at a concentration range of 1 nM-2000 nM were injected cycle-wise at the flow rate of 30 μL/min for 1 min, and dissociation time was set for 3 min. All SPR experiments were performed at 25° C. […] At least three replicates were done for each peptide at similar conditions, and binding affinities (KD) are presented as mean±SD.

B1: targeting peptide ES1P2, Trp-Tyr-Trp-Lys-NH2 (peptide)
peptide: WYWK-NH2
[1]
  IC50, dose response curve in SCC12B.2 cells (Neutral Red Cell Viability assay): 20.6 µM

B2: peptide pS, Ac-Thr-Gln-Arg-Gln-Asn-Ser-(PO3^2-)-Ala-Pro-Arg-Met-Leu-Ser-Ser-Asn-NH2 (peptide)
peptide: Ac-TQRQN[pS]APRMLSSN-NH2
SMILES: CSCC[C@H](NC(=O)[C@H](CCCNC(=N)N)NC(=O)[C@@H]1CCCN1C(=O)[C@H](C)NC(=O)[C@H](COP(=O)(O)O)NC(=O)[C@H](CC(N)=O)NC(=O)[C@H](CCC(N)=O)NC(=O)[C@H](CCCNC(=N)N)NC(=O)[C@H](CCC(N)=O)NC(=O)[C@@H](NC(C)=O)[C@@H](C)O)C(=O)N[C@@H](CC(C)C)C(=O)N[C@@H](CO)C(=O)N[C@@H](CO)C(=O)N[C@@H](CC(N)=O)C(N)=O
[1]
  IC50, dose response curve in SCC12B.2 cells (Neutral Red Cell Viability assay): 29 µM

B3: peptide pT, Ac-Arg-Thr-Lys-Ser-Arg-Thr(PO3^2-)-Trp-Ala-Gly-Glu-Lys-Ser-Lys-Arg-NH2 (peptide)
peptide: Ac-RTKSR[pT]WAGEKSKR-NH2
[1]
  IC50, dose response curve in SCC12B.2 cells (Neutral Red Cell Viability assay): 22.6 µM

B4: first targeting peptide with a Pmb residue, Ac-Arg-Thr-Lys-Ser-Arg-Pmb-Trp-Ala-Gly-NH2 (peptide)
peptide: Ac-RTKSR[Pmb]WAG-NH2
notes: Synthetic analog of the pT peptide (CDC25A Thr507 site) in which the phospho-Thr is replaced by Pmb; also called phosphono-peptide
[2]
  increase in melting temperature (ΔTm) of 14-3-3ε: 3.6 ° C.
[3]
  Kd: 0.009 µM

B5: modified pT peptide, Ac-Arg-Thr-Lys-Ser-Arg-Thr(PO3^2-)-Trp-Ala-Tic-NH2 (peptide)
peptide: RTKSRTWAX
modifications: N-terminal acetyl; phospho-Thr at position 6; Tic residue at position 9; C-terminal amide
notes: Synthetic modification of peptide pT; also called peptide pT modified with a Tic residue
[4]
  increase in melting temperature (ΔTm) of 14-3-3ε: 4.43 ° C.
14-3-3ε-(His)12 protein
  Kd: 0.0309 µM
